Biological target: Yeast wild-type Mlh1-Mlh3 (yeast (S. cerevisiae)) (UniProt P38920)

B1: Yeast wild-type Mlh1-Mlh3 (complex)
chain 1: MSLRIKALDASVVNKIAAGEIIISPVNALKEMMENSIDANATMIDILVKEGGIKVLQITDNGSGINKADLPILCERFTTSKLQKFEDLSQIQTYGFRGEALASISHVARVTVTTKVKEDRCAWRVSYAEGKMLESPKPVAGKDGTTILVEDLFFNIPSRLRALRSHNDEYSKILDVVGRYAIHSKDIGFSCKKFGDSNYSLSVKPSYTVQDRIRTVFNKSVASNLITFHISKVEDLNLESVDGKVCNLNFISKKSISPIFFINNRLVTCDLLRRALNSVYSNYLPKGNRPFIYLGIVIDPAAVDVNVHPTKREVRFLSQDEIIEKIANQLHAELSAIDTSRTFKASSISTNKPESLIPFNDTIESDRNRKSLRQAQVVENSYTTANSQLRKAKRQENKLVRIDASQAKITSFLSSSQQFNFEGSSTKRQLSEPKVTNVSHSQEAEKLTLNESEQPRDANTINDNDLKDQPKKKQKLGDYKVPSIADDEKNALPISKDGYIRVPKERVNVNLTSIKKLREKVDDSIHRELTDIFANLNYVGVVDEERRLAAIQHDLKLFLIDYGSVCYELFYQIGLTDFANFGKINLQSTNVSDDIVLYNLLSEFDELNDDASKEKIISKIWDMSSMLNEYYSIELVNDGLDNDLKSVKLKSLPLLLKGYIPSLVKLPFFIYRLGKEVDWEDEQECLDGILREIALLYIPDMVPKVDTSDASLSEDEKAQFINRKEHISSLLEHVLFPCIKRRFLAPRHILKDVVEIANLPDLYKVFERC
chain 2: MSQHIRKLDSDVSERLKSQACTVSLASAVREIVQNSVDAHATTIDVMIDLPNLSFAVYDDGIGLTRSDLNILATQNYTSKIRKMNDLVTMKTYGYRGDALYSISNVSNLFVCSKKKDYNSAWMRKFPSKSVMLSENTILPIDPFWKICPWSRTKSGTVVIVEDMLYNLPVRRRILKEEPPFKTFNTIKADMLQILVMHPMISLNVQYTDKLRINTEVLFRSKNITEGLTKHQQMSQVLRNVFGAIIPPDMLKKVSLKFNEYQIEGIISKMPVGLKDLQFIYINGRRYADSAFQGYVDSLFQAQDFGEKGMSLLKTKSVGKPYRSHPVFILDVRCPQTIDDLLQDPAKKIVKPSHIRTIEPLIVKTIRSFLTFQGYLTPDKSDSSFEIVNCSQKTATLPDSRIQISKRNQVLNSKMKIARINSYIGKPAVNGCRINNSTINYEKIKNIRIDGQKSRLRNKLSSRPYDSGFTEDYDSIGKTITDFSISRSVLAKYEVINQVDKKFILIRCLDQSIHNCPLLVLVDQHACDERIRLEELFYSLLTEVVTGTFVARDLKDCCIEVDRTEADLFKHYQSEFKKWGIGYETIEGTMETSLLEIKTLPEMLTSKYNGDKDYLKMVLLQHAHDLKDFKKLPMDLSHFENYTSVDKLYWWKYSSCVPTVFHEILNSKACRSAVMFGDELTRQECIILISKLSRCHNPFECAHGRPSMVPIAELK
With B1 the endonuclease activity on circular dsDNA: ratio of Mlh1-Mlh3 to 2.7 kb plasmid at the optimum of activity (Mlh1-Mlh3 per 2.7 kb plasmid) was 100.
